Where a chain is given by its changes, count along the chain named.
B1: SW186 Fab (fragment antigen-binding region of SW186) (Fab, V domains shown)
VH: QVQLQQSGAELVKPGASVKISCKASGVAFSSYWMNWVKQRPGKGLEWIGQIYPGDGDTNYNGKFKGKATLTADKSSSTAYMQLSSLSSEDSAVYFCARGFIATVEETMDYWGQGTSVTVSS
VL: DIQMTQTTSSLSASLGDRVTISCRASQDISNYLNWYQQKPDGTVKLLIYYTSRLHSGVPSRFSGSGSGTDYSLTISNLEQEDIATYFCQQSHTLPWTFGGGTKLEIK
B2: SW186 (murine variable regions, murine-human chimeric) (Fab, V domains shown)
VH: B1 VH
VL: B1 VL
B3: humanized SW186 H4L2 (antibody, V domains shown)
VH: QVQLVQSGAEVKKPGSSVKVSCKASGVAFSSYWMNWVKQAPGQGLEWIGQIYPGDGDTNYNGKFKGKATITADKSTSTAYMELSSLRSEDTAVYFCARGFIATVEETMDYWGQGTLVTVSS
VL: DIQMTQSPSSLSASVGDRVTITCRASQDISNYLNWYQQKPGKAPKLLIYYTSRLHSGVPSRFSGSGSGTDFTLTISSLQPEDFATYFCQQSHTLPWTFGGGTKLEIK
B4: humanized SW186 H4L1 (antibody, V domains shown)
VH: B3 VH
VL: B3 VL with F87Y
B5: humanized SW186 H2L3 (antibody, V domains shown)
VH: B3 VH with K38R, K67R, A68V
VL: B3 VL with F71Y
B6: humanized SW186 H2L4 (antibody, V domains shown)
VH: B3 VH with K38R, K67R, A68V
VL: B3 VL with A43T, P44V, F71Y
B7: humanized SW186 H2L2 (antibody, V domains shown)
VH: B3 VH with K38R, K67R, A68V
VL: B3 VL
B8: humanized SW186 H1L3 (antibody, V domains shown)
VH: B3 VH with K38R, I48M, K67R, A68V, F95Y
VL: B3 VL with F71Y
B9: humanized SW186 H3L1 (antibody, V domains shown)
VH: B3 VH with K38R, K67R
VL: B3 VL with F87Y
B10: humanized SW186 H1L4 (antibody, V domains shown)
VH: B3 VH with K38R, I48M, K67R, A68V, F95Y
VL: B3 VL with A43T, P44V, F71Y
B11: humanized SW186 H2L1 (antibody, V domains shown)
VH: B3 VH with K38R, K67R, A68V
VL: B3 VL with F87Y
B12: humanized SW186 H3L4 (antibody, V domains shown)
VH: B3 VH with K38R, K67R
VL: B3 VL with A43T, P44V, F71Y
B13: humanized SW186 H3L2 (antibody, V domains shown)
VH: B3 VH with K38R, K67R
VL: B3 VL
B14: humanized SW186 H4L3 (antibody, V domains shown)
VH: B3 VH
VL: B3 VL with F71Y
B15: humanized SW186 H1L2 (antibody, V domains shown)
VH: B3 VH with K38R, I48M, K67R, A68V, F95Y
VL: B3 VL
B16: humanized SW186 H4L4 (antibody, V domains shown)
VH: B3 VH
VL: B3 VL with A43T, P44V, F71Y
B17: humanized SW186 H3L3 (antibody, V domains shown)
VH: B3 VH with K38R, K67R
VL: B3 VL with F71Y
B18: SW186 Fab (Fab, V domains shown)
VH: B1 VH
VL: B1 VL
B19: humanized SW186 H1L1 (antibody, V domains shown)
VH: B3 VH with K38R, I48M, K67R, A68V, F95Y
VL: B3 VL with F87Y
B20: humanized SW186 H4L3 (antibody, V domains shown)
VH: B3 VH
VL: B3 VL with F71Y
B21: humanized SW186 H1L2 (antibody, V domains shown)
VH: B3 VH with K38R, I48M, K67R, A68V, F95Y
VL: B3 VL
B22: humanized SW186 H2L1 (antibody, V domains shown)
VH: B3 VH with K38R, K67R, A68V
VL: B3 VL with F87Y
B23: humanized SW186 H4L2 (antibody, V domains shown)
VH: B3 VH
VL: B3 VL
B24: humanized SW186 H4L1 (antibody, V domains shown)
VH: B3 VH
VL: B3 VL with F87Y
B25: humanized SW186 H1L4 (antibody, V domains shown)
VH: B3 VH with K38R, I48M, K67R, A68V, F95Y
VL: B3 VL with A43T, P44V, F71Y
B26: humanized SW186 H1L3 (antibody, V domains shown)
VH: B3 VH with K38R, I48M, K67R, A68V, F95Y
VL: B3 VL with F71Y
B27: humanized SW186 H2L2 (antibody, V domains shown)
VH: B3 VH with K38R, K67R, A68V
VL: B3 VL
B28: humanized SW186 H3L3 (antibody, V domains shown)
VH: B3 VH with K38R, K67R
VL: B3 VL with F71Y
B29: humanized SW186 H2L4 (antibody, V domains shown)
VH: B3 VH with K38R, K67R, A68V
VL: B3 VL with A43T, P44V, F71Y
B30: humanized SW186 H2L3 (antibody, V domains shown)
VH: B3 VH with K38R, K67R, A68V
VL: B3 VL with F71Y
B31: humanized SW186 H3L1 (antibody, V domains shown)
VH: B3 VH with K38R, K67R
VL: B3 VL with F87Y
B32: humanized SW186 H3L2 (antibody, V domains shown)
VH: B3 VH with K38R, K67R
VL: B3 VL
B33: humanized SW186 H3L4 (antibody, V domains shown)
VH: B3 VH with K38R, K67R
VL: B3 VL with A43T, P44V, F71Y
B34: humanized SW186 H4L4 (antibody, V domains shown)
VH: B3 VH
VL: B3 VL with A43T, P44V, F71Y
B35: SW186 monoclonal antibody (murine-human chimeric, human IgG1 backbone) (antibody, V domains shown)
VH: B1 VH
VL: B1 VL

biological target: T1, SARS-CoV-2 spike ectodomain (S-ecto), Wuhan-hu-1 strain, residues 1-1208 with 2P mutation (SARS-CoV-2, Wuhan-hu-1, UniProt P0DTC2, 2P mutation at residues 986 and 987); assay: BLI; conditions: both partners purified

Binder	Kd [nM]
B1	~1

biological target: SARS-CoV-2 spike ectodomain (S-ecto), Wuhan-hu-1 strain, 2P (SARS-CoV-2, Wuhan-hu-1, UniProt P0DTC2, 2P mutation at residues 986 and 987 | 2P mutation at residues 986 and 987, biotin (NHS-sulfo-LC-Biotin, EZ-link biotinylation kit)); assay: BLI; conditions: both partners purified

Binder	Kd [nM]	koff [s⁻¹]	kon [M⁻¹ s⁻¹]
B2	1.09	0.000128	117000
B3	5.86	0.000953	163000
B4	4.14	0.00077	186000
B5	3.72	0.000713	191000
B6	3.14	0.000603	192000
B7	12.6	0.00151	120000
B8	4.37	0.000598	137000
B9	6.69	0.00119	178000
B10	5.03	0.000519	103000
B11	18.1	0.00078	43100
B12	2.6	0.000469	181000
B13	6.09	0.00122	201000
B14	2.4	0.000424	177000
B15	26.2	0.00126	48200
B16	1.57	0.000338	216000
B17	5.82	0.000761	131000

biological target: SARS-CoV-2 spike ectodomain (S-ecto), Wuhan-hu-1, 2P (SARS-CoV-2, Wuhan-hu-1, UniProt P0DTC2, 2P mutation at residues 986 and 987, biotinylated (EZ-link NHS-sulfo-LC-Biotin) for the BLI assay); assay: BLI; conditions: both partners purified

Binder	Kd [nM]
B18	1.09
B19	10
B20	2.4
B21	26.2
B22	18.1
B23	5.86
B24	4.14
B25	5.03
B26	4.37
B27	12.6
B28	5.82
B29	3.14
B30	3.72
B31	6.69
B32	6.09
B33	2.6
B34	1.57

biological target: T1, SARS-CoV-2 spike ectodomain (S-ecto), …; assay: cell-based or functional assay; conditions: not given

Binder	neutralisation of infectious mNeonGreen SARS-CoV-2, WA1 strain, IC50 [µg/mL]
B35	~0.04

— paper PMC9407945 (Science immunology, 2022)
